These results are taken from publication PMC3326314 (Nucleic Acids Research, 2011).

One data set concerns the target T1, Rif2 full length (UniProt Q06208 1-395).
T1 sequence (looked up): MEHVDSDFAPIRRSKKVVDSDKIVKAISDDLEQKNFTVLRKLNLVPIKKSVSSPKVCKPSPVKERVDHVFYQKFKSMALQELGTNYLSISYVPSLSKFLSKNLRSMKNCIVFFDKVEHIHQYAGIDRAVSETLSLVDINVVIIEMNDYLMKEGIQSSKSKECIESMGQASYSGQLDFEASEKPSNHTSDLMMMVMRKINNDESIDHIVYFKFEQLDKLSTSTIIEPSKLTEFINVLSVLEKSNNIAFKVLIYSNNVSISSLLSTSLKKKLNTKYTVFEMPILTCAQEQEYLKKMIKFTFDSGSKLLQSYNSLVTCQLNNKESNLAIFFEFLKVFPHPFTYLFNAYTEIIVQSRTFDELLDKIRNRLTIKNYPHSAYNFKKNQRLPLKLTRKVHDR
Nature of the data set: NMR titration.

The next data set deals with T2, Rap1Δ[591-597] (Saccharomyces cerevisiae, UniProt P11938 1-827, del591-597).
T2 sequence: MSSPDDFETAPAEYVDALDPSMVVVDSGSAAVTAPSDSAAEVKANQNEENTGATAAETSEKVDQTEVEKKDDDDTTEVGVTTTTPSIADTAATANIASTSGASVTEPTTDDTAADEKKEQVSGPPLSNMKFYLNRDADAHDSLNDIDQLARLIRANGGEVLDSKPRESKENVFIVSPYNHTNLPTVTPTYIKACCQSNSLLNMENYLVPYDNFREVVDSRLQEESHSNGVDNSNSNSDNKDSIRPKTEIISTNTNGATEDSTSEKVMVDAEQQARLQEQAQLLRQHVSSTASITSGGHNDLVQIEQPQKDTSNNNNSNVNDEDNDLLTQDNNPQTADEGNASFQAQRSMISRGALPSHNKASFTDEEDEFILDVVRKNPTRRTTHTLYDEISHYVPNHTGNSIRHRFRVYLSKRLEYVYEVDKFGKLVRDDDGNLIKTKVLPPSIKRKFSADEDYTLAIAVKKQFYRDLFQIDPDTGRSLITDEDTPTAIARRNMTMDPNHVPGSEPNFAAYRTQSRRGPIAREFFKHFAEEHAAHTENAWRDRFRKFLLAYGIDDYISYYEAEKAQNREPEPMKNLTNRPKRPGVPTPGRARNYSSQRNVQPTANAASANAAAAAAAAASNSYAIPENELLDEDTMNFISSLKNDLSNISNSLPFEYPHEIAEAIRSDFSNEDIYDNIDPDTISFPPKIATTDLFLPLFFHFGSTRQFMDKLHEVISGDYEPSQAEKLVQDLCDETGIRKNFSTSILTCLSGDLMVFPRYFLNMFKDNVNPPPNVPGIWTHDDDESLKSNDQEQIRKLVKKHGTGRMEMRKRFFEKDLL
Nature of the data set: EMSA. For orientation: A gel shift assay detects complexes by their altered migration in electrophoresis.

Another data set concerns the target T3, Rap1[Y592A-K597A] (Saccharomyces cerevisiae, UniProt P11938 1-827, Y592A;K597A).
T3 sequence: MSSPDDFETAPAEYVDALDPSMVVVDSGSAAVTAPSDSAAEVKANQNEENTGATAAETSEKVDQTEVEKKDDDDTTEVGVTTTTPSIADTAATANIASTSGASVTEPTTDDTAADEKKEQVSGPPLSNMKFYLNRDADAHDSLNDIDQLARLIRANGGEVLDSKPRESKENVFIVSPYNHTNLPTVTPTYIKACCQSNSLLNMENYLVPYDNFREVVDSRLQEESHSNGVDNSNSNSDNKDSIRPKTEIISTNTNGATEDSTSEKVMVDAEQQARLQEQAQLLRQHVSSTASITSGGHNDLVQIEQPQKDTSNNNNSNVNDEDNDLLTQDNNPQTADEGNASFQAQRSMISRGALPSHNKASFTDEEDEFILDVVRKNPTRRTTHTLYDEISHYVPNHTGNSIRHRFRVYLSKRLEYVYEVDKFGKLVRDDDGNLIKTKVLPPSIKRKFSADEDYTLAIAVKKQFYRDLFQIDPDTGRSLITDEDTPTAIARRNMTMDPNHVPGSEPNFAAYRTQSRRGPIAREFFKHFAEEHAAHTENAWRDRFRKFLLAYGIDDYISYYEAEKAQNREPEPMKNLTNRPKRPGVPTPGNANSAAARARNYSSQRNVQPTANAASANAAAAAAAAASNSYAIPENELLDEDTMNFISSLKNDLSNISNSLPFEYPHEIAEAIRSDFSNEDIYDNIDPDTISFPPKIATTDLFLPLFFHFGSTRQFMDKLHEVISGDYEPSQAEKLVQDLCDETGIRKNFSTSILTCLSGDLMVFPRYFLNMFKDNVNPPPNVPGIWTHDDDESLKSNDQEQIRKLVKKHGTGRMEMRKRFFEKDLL
Nature of the data set: EMSA.

Data set [1] concerns the target T4, Rap1[358-827] (Saccharomyces cerevisiae, UniProt P11938 358-827).
T4 sequence: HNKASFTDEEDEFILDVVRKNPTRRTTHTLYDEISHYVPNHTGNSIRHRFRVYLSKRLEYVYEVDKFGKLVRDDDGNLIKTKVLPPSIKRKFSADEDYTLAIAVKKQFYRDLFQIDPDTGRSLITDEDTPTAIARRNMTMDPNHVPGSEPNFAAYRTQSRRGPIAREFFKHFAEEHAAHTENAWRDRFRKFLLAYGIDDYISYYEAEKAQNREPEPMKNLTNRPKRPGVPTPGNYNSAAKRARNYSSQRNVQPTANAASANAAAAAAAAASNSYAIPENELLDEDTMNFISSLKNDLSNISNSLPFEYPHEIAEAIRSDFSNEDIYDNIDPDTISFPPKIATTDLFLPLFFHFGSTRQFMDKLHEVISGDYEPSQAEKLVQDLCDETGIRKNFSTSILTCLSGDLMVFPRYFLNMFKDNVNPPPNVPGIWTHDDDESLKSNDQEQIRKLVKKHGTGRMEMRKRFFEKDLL
Nature of the data set: X-ray crystallography.

The next data set concerns the target T5, Rap1[117-827] (Saccharomyces cerevisiae, UniProt P11938 117-827).
T5 sequence: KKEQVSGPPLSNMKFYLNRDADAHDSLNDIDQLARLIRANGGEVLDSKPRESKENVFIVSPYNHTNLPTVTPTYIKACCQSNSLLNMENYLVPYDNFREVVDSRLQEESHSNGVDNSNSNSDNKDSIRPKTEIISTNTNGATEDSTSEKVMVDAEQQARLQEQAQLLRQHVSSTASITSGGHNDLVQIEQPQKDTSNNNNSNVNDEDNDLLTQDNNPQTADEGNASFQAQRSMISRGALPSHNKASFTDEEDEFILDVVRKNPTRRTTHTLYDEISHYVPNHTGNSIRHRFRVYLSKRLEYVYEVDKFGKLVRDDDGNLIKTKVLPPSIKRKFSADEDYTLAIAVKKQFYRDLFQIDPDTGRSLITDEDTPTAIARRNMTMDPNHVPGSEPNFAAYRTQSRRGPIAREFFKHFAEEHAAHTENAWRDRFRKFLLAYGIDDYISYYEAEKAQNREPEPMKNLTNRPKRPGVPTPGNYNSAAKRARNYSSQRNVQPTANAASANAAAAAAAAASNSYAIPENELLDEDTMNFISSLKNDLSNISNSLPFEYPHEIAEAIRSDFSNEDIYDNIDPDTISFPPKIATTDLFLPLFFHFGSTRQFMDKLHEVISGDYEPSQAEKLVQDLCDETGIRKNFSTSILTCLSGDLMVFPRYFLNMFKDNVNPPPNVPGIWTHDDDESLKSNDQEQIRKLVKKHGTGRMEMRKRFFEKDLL
The experiment in a line: SAXS and AUC.

Data set [2] deals with T4, Rap1[358-827]. The experiment in a line: SAXS and AUC.
The target in another data set is T6, Rap1 WT (Rap1-fl) (Saccharomyces cerevisiae, UniProt P11938 1-827).
T6 sequence: T3 sequence with A592Y, A597K
The experiment in a line: SAXS and AUC.

Residue numbers refer to the chain shown, from its start.

B1: Rap1[675-827] (domain or fragment, S. cerevisiae, UniProt P11938 675-827, looked up)
chain: SDFSNEDIYDNIDPDTISFPPKIATTDLFLPLFFHFGSTRQFMDKLHEVISGDYEPSQAEKLVQDLCDETGIRKNFSTSILTCLSGDLMVFPRYFLNMFKDNVNPPPNVPGIWTHDDDESLKSNDQEQIRKLVKKHGTGRMEMRKRFFEKDLL
With B1, the binding result with Rif2 full length is “binds”.

B2: 21-mer telomeric DNA duplex (ITC and EMSA) (dsDNA)
DNA 1: TCCTGGTGTGTGGGTGTGCGG
DNA 2: GCACACCCACACACCAGGACC
With B2, the binding result with Rap1Δ[591-597] and with Rap1[Y592A-K597A] was “binds” in each case.

B3: 31-mer crystallography duplex (dsDNA)
DNA 1: ACCTGGTGTGTGGGTGTTGTGTGGTGTTCAC
DNA 2: GTGTGAACACCACACAACACCCACACACCAG
Regarding B3, the binding result with Rap1[358-827] [1] is “binds”.

B4: 20-mer DNA duplex (AUC and SAXS) (dsDNA)
DNA 1: TCCTGGTGTGTGGGTGTGCG
DNA 2: GACGCACACCCACACACCAG
As for B4, the binding result with Rap1[117-827], with Rap1[358-827] [2] and with Rap1 WT (Rap1-fl) was “binds” in each case.
